Holding throughout (experiment): cleavage_in_vitro
Data set [1] has as its system T1, OMNI-84 (Porphyrobacter donghaensis).
T1 sequence: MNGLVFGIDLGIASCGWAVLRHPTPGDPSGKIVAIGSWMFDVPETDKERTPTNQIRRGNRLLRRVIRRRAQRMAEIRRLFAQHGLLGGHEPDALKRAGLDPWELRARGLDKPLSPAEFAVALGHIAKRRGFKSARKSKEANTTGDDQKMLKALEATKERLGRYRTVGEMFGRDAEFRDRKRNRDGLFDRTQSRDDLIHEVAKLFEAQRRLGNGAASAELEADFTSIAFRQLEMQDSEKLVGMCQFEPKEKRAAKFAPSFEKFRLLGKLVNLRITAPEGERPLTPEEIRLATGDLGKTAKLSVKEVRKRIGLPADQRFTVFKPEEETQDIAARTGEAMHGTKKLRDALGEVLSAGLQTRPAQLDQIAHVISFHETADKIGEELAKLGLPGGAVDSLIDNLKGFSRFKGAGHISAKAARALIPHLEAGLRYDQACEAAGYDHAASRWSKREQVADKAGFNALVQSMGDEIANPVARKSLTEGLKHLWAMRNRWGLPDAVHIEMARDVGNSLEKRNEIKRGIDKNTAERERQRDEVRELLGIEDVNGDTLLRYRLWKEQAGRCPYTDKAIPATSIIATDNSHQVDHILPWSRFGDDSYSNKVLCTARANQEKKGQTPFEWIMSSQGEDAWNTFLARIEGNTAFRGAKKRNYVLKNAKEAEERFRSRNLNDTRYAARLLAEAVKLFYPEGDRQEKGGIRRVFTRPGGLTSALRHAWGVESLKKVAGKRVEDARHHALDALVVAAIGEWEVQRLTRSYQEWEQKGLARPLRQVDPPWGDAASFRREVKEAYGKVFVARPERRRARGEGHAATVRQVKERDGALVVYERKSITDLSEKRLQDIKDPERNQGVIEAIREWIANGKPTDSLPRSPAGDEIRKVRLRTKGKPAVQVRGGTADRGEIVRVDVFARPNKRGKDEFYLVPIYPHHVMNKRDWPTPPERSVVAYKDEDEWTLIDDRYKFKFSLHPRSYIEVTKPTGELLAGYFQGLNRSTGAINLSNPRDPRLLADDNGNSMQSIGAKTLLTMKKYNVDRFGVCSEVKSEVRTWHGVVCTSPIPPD
Conditions: PAM NNNNGCAA; TXTL.

Data set [2] deals with T2, OMNI-71 (Hyphobacterium sp. 2ED5).
T2 sequence: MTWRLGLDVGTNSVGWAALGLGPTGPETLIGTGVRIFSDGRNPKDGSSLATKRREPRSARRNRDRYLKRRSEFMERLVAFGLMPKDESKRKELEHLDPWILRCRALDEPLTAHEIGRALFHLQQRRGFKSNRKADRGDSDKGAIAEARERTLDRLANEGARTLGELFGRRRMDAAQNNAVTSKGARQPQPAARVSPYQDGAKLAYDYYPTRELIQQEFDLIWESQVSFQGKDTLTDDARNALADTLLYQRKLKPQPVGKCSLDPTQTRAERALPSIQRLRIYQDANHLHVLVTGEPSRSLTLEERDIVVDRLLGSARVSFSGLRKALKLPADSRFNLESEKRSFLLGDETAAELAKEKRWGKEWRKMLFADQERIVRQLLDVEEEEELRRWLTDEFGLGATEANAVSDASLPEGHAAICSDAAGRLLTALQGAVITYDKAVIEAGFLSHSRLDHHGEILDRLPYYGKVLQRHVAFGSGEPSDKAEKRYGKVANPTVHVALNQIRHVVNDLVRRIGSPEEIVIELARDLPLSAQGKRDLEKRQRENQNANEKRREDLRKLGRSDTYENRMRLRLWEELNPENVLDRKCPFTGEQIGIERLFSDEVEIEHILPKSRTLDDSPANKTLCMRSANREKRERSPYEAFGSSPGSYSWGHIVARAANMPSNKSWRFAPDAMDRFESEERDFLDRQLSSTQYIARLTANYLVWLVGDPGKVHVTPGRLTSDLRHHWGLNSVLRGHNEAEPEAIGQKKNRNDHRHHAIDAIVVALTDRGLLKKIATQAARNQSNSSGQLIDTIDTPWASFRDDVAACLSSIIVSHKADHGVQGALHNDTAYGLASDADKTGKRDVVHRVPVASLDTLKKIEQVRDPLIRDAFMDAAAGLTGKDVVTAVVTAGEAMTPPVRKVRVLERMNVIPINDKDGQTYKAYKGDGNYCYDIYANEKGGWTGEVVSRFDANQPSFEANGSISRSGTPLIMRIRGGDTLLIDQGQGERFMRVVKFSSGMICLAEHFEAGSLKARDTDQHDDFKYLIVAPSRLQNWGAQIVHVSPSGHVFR
The following applies: PAM NGG; TXTL.

Data set [3] concerns T3, OMNI-78 (Notoacmeibacter marinus).
T3 sequence: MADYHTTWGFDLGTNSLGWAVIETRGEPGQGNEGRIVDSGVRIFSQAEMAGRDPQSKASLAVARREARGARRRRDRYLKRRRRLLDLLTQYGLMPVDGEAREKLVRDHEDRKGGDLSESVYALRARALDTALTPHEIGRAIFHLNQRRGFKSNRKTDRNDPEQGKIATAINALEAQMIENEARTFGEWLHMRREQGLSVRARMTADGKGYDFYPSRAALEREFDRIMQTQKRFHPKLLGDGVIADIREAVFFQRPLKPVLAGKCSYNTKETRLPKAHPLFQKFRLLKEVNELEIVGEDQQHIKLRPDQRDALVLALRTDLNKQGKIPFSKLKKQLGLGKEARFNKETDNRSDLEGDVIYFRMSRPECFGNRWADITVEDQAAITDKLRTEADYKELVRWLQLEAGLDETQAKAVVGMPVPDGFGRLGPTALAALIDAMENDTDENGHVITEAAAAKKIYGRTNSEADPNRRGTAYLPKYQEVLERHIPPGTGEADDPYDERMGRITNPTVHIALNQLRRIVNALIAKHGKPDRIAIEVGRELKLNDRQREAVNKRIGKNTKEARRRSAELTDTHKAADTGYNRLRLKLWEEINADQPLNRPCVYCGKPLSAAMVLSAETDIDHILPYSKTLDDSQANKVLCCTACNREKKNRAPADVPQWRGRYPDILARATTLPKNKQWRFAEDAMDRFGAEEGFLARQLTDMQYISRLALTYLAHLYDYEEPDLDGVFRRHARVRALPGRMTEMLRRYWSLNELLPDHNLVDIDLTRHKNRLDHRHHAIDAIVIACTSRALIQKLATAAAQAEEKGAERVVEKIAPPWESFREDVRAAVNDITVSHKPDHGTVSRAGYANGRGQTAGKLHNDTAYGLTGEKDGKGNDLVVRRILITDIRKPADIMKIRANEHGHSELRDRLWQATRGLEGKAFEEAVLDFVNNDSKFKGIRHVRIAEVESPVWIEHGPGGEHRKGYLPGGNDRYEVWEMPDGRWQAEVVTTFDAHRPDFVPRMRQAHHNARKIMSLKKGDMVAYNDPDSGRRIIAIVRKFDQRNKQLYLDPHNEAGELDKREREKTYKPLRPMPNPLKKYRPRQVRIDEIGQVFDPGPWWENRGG
Conditions: PAM NRRNAT; TXTL.

The subject of data set [4] is T4, OMNI-75 (Lactococcus sp. 1JSPR-7).
T4 sequence: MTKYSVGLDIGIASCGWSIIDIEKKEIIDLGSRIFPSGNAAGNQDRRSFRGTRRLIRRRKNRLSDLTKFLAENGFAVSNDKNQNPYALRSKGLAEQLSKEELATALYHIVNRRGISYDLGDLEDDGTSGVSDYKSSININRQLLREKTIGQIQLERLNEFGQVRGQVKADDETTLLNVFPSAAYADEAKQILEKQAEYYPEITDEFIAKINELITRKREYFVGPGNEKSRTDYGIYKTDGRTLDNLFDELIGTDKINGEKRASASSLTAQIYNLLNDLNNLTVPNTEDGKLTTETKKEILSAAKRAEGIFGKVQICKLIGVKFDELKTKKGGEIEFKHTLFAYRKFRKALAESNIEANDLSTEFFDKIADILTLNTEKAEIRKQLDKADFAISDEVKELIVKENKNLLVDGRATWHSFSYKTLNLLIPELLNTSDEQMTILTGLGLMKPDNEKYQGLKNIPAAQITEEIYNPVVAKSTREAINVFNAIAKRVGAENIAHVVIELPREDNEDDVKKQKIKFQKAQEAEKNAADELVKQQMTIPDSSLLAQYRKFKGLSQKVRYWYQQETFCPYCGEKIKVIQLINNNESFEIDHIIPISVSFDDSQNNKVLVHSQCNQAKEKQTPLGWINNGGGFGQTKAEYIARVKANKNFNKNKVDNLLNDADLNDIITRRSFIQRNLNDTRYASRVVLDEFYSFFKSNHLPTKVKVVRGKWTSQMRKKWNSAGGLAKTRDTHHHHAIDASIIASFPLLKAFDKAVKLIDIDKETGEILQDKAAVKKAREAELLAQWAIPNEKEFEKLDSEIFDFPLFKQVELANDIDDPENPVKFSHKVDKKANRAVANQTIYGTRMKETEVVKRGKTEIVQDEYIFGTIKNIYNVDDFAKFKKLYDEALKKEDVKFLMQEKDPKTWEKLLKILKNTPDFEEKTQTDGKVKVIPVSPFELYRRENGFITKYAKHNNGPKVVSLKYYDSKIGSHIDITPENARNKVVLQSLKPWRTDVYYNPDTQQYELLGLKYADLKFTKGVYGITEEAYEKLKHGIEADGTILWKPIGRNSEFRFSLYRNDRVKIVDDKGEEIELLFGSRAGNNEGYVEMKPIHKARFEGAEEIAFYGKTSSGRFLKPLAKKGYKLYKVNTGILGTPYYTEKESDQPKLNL
The following applies: PAM NNGNRA; TXTL.

“GGAAGAGCAGAGCCUUGGUCUCGCCGUGGUUUCCCUACCGAUUUGCCCAUGGUAGGGAAAGUUAUCGGCAAAUCGGUAGGGAAGCCACGGUAACAGAGCUUCACUGUGAAGGAUCAUCCUGAAGGGGAAAUUCCUUAUUGAAGCACUGAUACAGAGCUUCUGUAUUCAAACGACCCUUUCUGAGAUAUCAGAGAGGGUCGUUUUU / GGAAGAGCAGAGCCTTGGTCTCNNNNNNNN / NNNNNNNNGAGACCAAGGCTCTGCTCTTCC”: the activity (1-depletion score) in data set [1] was determined as 0.93.

On to “GGAAGAGCAGAGCCUUGGUCUCGUUCCGGUUGGAGAAAUCUUUCCGGUAACAAGGUUUAGACCACAAAAUGGAACGGCCUCUUCGGGGGUCGUUCUUUUUUU / GGAAGAGCAGAGCCTTGGTCTCNNNNNNNN / NNNNNNNNGAGACCAAGGCTCTGCTCTTCC”, for which the activity (1-depletion score) in data set [2] stood at 0.96.

In turn, “GGAAGAGCAGAGCCUUGGUCUCGUUGCGGUUGGCCUGCGAGAAAUCGCAGUCCAGCCGUUAACAAGCUGAGAUAUGCACCAGAUAAGGCGCUCGCUCCGGCGAGCGCUUUUUU / GGAAGAGCAGAGCCTTGGTCTCNNNNNNNN / NNNNNNNNGAGACCAAGGCTCTGCTCTTCC” gave an activity (1-depletion score) in data set [3] of 0.9.

As to “GGAAGAGCAGAGCCUUGGUCUCGUUUUUGUACUCUCAAGAAAUUGAGAAUCUACAAGGAUAAGGCUUUAUGCCGAAAUCAUUAACUCGCCUUUGGGCGAGUUUUUU / GGAAGAGCAGAGCCTTGGTCTCNNNNNNNN / NNNNNNNNGAGACCAAGGCTCTGCTCTTCC”, the activity (1-depletion score) in data set [4] is 0.93.
